Like-named read-outs stand apart in the source and are kept apart here.
T1: human IL-23 protein (ACROBiosystems, ILB-H52W5) (human, UniProt Q9NPF7 20-189; P29460 23-328)
T1 construct: Bought protein; construct not described; also called Human IL-23 antigen; human IL-23 antigen protein
T1 sequence (looked up) 1: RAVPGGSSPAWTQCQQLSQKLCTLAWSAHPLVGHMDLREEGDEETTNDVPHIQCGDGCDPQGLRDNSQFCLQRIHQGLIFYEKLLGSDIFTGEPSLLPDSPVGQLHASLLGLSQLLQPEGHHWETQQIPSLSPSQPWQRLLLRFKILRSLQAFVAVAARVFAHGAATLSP
T1 sequence (looked up) 2: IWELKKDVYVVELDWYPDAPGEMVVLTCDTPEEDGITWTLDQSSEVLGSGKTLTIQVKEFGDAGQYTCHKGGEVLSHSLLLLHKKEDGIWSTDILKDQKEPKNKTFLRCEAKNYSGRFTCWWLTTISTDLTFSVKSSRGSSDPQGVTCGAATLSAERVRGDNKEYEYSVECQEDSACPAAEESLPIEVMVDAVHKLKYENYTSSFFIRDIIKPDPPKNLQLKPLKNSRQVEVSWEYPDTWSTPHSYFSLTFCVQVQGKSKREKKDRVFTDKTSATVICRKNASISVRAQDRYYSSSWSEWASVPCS

T2: IL-36R on human skin squamous cell line A431 (human, UniProt Q9HB29 20-575)
T2 sequence (looked up): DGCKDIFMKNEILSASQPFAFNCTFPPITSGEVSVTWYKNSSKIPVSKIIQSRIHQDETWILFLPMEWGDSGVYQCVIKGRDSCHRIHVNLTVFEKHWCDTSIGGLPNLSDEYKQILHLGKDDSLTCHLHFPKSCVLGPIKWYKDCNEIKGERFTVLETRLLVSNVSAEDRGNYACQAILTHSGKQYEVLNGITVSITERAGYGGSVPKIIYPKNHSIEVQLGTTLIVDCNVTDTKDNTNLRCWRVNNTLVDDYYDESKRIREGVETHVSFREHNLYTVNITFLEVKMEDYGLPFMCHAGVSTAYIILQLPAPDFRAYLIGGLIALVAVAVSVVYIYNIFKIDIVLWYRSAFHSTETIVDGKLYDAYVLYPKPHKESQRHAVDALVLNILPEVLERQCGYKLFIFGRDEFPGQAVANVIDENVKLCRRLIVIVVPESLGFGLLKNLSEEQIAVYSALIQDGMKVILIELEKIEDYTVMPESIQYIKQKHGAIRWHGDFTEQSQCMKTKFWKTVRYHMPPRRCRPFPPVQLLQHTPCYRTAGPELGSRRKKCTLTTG

T3: Human IL-36R protein (His + Avi Tag), Kactus IL1-HM4L2 (human, UniProt Q9HB29 20-335)
T3 construct: Bought protein; also called human IL-36R antigen protein; Human IL-36R antigen
T3 sequence: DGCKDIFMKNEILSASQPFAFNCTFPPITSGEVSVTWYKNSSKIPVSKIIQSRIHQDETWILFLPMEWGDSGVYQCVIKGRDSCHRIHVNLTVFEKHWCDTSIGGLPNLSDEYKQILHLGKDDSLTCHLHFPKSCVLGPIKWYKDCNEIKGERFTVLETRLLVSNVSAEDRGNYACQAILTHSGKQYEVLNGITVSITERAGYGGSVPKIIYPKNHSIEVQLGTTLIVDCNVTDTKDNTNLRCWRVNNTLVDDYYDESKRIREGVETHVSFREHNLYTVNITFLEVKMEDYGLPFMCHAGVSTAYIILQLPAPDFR

T4: human IL-23 protein (Sino Biological, CT048-H08H) (human, UniProt Q9NPF7 20-189; P29460 23-328)
T4 construct: Detected with Anti-His-HRP in the ELISA, so it carries a His tag
T4 sequence (looked up) 1: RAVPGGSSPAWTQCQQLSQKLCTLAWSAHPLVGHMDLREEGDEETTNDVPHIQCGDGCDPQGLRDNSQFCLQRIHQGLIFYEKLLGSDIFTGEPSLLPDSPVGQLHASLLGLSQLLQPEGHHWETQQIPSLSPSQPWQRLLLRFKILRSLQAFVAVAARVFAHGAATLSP
T4 sequence (looked up) 2: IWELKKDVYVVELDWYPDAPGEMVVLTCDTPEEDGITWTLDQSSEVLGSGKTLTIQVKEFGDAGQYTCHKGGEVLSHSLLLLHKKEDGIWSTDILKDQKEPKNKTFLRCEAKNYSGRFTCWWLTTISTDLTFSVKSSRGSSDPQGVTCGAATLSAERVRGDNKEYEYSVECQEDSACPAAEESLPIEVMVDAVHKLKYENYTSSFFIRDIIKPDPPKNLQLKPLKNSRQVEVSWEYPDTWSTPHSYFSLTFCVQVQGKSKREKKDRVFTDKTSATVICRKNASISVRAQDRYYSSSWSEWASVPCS

T5: IL-23 (R&D Systems, 1290-IL-010) (UniProt Q9NPF7 20-189; P29460 23-328)
T5 sequence (looked up) 1: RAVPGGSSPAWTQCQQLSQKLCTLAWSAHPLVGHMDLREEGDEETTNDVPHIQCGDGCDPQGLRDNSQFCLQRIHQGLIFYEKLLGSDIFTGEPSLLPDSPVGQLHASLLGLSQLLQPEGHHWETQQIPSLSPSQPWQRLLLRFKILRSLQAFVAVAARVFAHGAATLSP
T5 sequence (looked up) 2: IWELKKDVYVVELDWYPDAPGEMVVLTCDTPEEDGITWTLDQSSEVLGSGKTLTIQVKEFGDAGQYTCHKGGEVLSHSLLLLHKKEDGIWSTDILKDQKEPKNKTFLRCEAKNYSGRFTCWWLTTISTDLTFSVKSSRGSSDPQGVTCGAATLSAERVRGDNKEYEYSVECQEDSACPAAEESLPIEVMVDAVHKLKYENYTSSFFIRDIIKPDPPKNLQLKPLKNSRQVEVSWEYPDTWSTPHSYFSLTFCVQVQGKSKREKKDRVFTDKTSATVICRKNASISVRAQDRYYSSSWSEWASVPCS


Experiments:
[1] = biological target: T1, human IL-23 protein (ACROBiosystems, …); assay: SPR (Biacore 8K), antibody captured by anti-human IgG Fc, IL-23 as analyte
[2] = biological target: T2, IL-36R on human skin squamous cell line …; assay: cell-based or functional assay
[3] = biological target: T3, Human IL-36R protein (His + Avi Tag), …; assay: SPR (Biacore 8K), antibody captured by anti-human IgG Fc, IL-36R as analyte
[4] = biological target: T4, human IL-23 protein (Sino Biological, …); assay: ELISA, test sample coated, His-tagged IL-23 in solution
[5] = biological target: T4, human IL-23 protein (Sino Biological, …); assay: cell-based or functional assay
[6] = biological target: T4, human IL-23 protein (Sino Biological, …); assay: competition ELISA, IL-23R coated, biotinylated IL-23 preincubated with antibody
[7] = biological target: T4, human IL-23 protein (Sino Biological, …); assay: SPR (Biacore 8K), antibody captured on Protein A chip, IL-23 as analyte
[8] = biological target: T5, IL-23 (R&D Systems, 1290-IL-010); assay: cell-based or functional assay
[9] = biological target: T4, human IL-23 protein (Sino Biological, …); assay: SPR (Biacore 8K), antibody captured on Protein A chip, IL-23 as analyte; remark: listed apart in the source

| Binder | Kd [1] | koff [1] | kon [1] | IL-36α-induced A431 IL-8 secretion IC50 [2] | Kd [3] | koff [3] | kon [3] | EC50 [4] | Activity in inhibiting proliferation of BaF3-IL-23R cells (IC50, nM) [5] | IC50 [6] | Kd [7] | koff [7] | kon [7] | IC50 for inhibiting IL-17 secretion [8] | Kd [9] |
| --- | --- | --- | --- | --- | --- | --- | --- | --- | --- | --- | --- | --- | --- | --- | --- |
| IL-36R-IL-23-03 (anti-IL-36R and anti-IL-23 bispecific antibody, VHH213_Hu07 on Hu29-19, Structure B) (bispecific antibody, human IgG1, kappa, L234A L235A, VHH fused by a (G4S)2 linker to the N-terminus of the light chain; IgG1 L234A/L235A) heavy: not shown light: EVQLVESGGGLVQPGGSLRLSCAASGNTFSRYCMGWFRQAPGKELVGVAAIDSDGDTSYADSVEGRFTISRDNAKNTLYLQMNSLRAEDTAVYYCAADFTPSAPPRMGSGGYCFGDYWGQGTLVTVSSGGGGSGGGGSDIVLTQSPDSLAVSLGERATINCRASESVDYYGISSMHWFQQKPGQPPKLLIYRASNLESGIPARFSGSGSRTDFTLTISSLQAEDVAVYYCQQANKDPYTFGGGTKVEIKRTVAAPSVFIFPPSDEQLKSGTASVVCLLNNFYPREAKVQWKVDNALQSGNSQESVTEQDSKDSTYSLSSTLTLSKADYEKHKVYACEVTHQGLSSPVTKSFNRGEC | 0.0517 nM | 4.93e-05 s⁻¹ | 954000 M⁻¹ s⁻¹ | 0.29 nM | 4.28 nM | 0.000108 s⁻¹ | 25300 M⁻¹ s⁻¹ |  |  |  |  |  |  |  |  |
| chimeric antibody Ch29 (antibody, human IgG1, kappa, L234A L235A, V domains shown) VH: QVQLKESGPGLVAPSQSLSITCTVSGFSLTSYAISWVRQPPGKGLEWLGVIWTGGGTNYNSGIKSRLTISKDNSKSQVFLNMNSLQTEDTARYYCVREGDYGSYAGAMDYWGQGTSVTVSS VL: DIVLTQSPASLAVSLGQRATISCRASESVDYYGISSMHWFQQKPGQPPKLLIYRASNLESGIPARFSGSGSRTDFTLTINRVETDDVATYYCQQANKDPYTFGGGTKLEIKR |  |  |  |  |  |  |  | 1.16 nM | 0.175 nM | 0.386 nM | 0.0207 nM | 8.4e-05 s⁻¹ | 4.05e+06 M⁻¹ s⁻¹ |  |  |

Second part, the binder after the results:

| Kd [1] | koff [1] | kon [1] | IL-36α-induced A431 IL-8 secretion IC50 [2] | Kd [3] | koff [3] | kon [3] | EC50 [4] | Activity in inhibiting proliferation of BaF3-IL-23R cells (IC50, nM) [5] | IC50 [6] | Kd [7] | koff [7] | kon [7] | IC50 for inhibiting IL-17 secretion [8] | Kd [9] | Binder |
| --- | --- | --- | --- | --- | --- | --- | --- | --- | --- | --- | --- | --- | --- | --- | --- |
|  |  |  |  |  |  |  | 1.22 nM | 0.178 nM | 0.488 nM |  |  |  | 0.0289 nM | 0.0149 nM | Hu29-24 (humanized anti-IL-23 antibody) (antibody, human IgG1, kappa, L234A L235A) heavy: not shown light: DIVLTQSPDSLAVSLGQRATINCRASESVDYYGISSMHWFQQKPGQPPKLLIYRASNLESGIPARFSGSGSRTDFTLTISSLQAEDVAVYYCQQANKDPYTFGGGTKVEIKRTVAAPSVFIFPPSDEQLKSGTASVVCLLNNFYPREAKVQWKVDNALQSGNSQESVTEQDSKDSTYSLSSTLTLSKADYEKHKVYACEVTHQGLSSPVTKSFNRGEC |
| 0.0702 nM | 6.02e-05 s⁻¹ | 858000 M⁻¹ s⁻¹ | 0.34 nM | 17.7 nM | 0.000216 s⁻¹ | 12200 M⁻¹ s⁻¹ |  |  |  |  |  |  |  |  | IL-36R-IL-23-04 (anti-IL-36R and anti-IL-23 bispecific antibody, VHH162_Hu11 on Hu29-19, Structure B) (bispecific antibody, human IgG1, kappa, L234A L235A, VHH fused by a (G4S)2 linker to the N-terminus of the light chain; IgG1 L234A/L235A) heavy: not shown light: EVQLVESGGGLVQPGGSLRLSCAASGYSYRTQCLGWYRQAPGKQREAVATISGGGTSTYYSDSVKGRFTISQDNSKTTVYLQMNSLRAEDTAVYYCAKGLSVLGSWCHGGSSYEYTYSGQGTLVTVSSGGGGSGGGGSDIVLTQSPDSLAVSLGERATINCRASESVDYYGISSMHWFQQKPGQPPKLLIYRASNLESGIPARFSGSGSRTDFTLTISSLQAEDVAVYYCQQANKDPYTFGGGTKVEIKRTVAAPSVFIFPPSDEQLKSGTASVVCLLNNFYPREAKVQWKVDNALQSGNSQESVTEQDSKDSTYSLSSTLTLSKADYEKHKVYACEVTHQGLSSPVTKSFNRGEC |

Reference: patent EP4671282A1 (Jiangsu Hengrui Pharmaceuticals Co., Ltd., dated 2025)
